The source of these data is US20060257410A1 (CHEMOCENTRYX, published 2006).

One assay concerns the target T1, CXCR2 (UniProt P25025 1-360, limits assumed).
T1 construct: whole, on cells
T1 sequence (looked up): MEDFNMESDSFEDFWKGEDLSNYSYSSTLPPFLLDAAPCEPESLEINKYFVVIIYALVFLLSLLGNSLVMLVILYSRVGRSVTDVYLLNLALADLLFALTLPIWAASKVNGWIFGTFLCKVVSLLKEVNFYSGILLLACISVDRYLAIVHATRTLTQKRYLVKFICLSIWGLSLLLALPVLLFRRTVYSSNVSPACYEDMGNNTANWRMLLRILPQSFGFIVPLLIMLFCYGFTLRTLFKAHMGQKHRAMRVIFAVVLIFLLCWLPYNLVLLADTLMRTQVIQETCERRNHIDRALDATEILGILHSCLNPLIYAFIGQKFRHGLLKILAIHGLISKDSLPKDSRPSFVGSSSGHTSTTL
Put plainly: flow cytometry on transfected HEK 293 cells.

Assay [1] concerns the target T2, mouse homolog of CCX CKR2 (mouse, UniProt P56485 1-362).
T2 construct: whole, on cells; also called mouse CCX-CKR2
Put plainly: IHC on fixed paraffin embedded tissue sections.

T2 sequence (P56485 whole entry): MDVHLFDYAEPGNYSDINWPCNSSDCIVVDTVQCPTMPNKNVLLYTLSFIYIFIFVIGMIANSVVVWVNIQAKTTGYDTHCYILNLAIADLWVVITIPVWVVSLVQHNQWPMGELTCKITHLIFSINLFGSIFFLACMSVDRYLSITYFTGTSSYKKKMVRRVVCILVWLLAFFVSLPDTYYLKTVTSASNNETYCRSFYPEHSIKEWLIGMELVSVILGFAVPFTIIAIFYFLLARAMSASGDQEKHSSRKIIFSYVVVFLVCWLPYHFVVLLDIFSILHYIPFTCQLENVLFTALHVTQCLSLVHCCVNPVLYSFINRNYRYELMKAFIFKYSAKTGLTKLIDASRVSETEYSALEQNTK

B1: monoclonal antibody 11G8 (antibody, V domains shown)
VH: EVKLVESGGDLVQPGGSLKLSCATSGFTFSDYYMFWVRQTPEKRLEWVAYITNGGDRSYYSDTVTGRFIISRDNAKNTLYLQMSRLKSEDTAMYYCARQGNWAAWFVYWGQGTLVTVSA
VL: DVLMTQTPLSLPVSLGDQASISCRSSHYIVHSDGNTYLEWYLQKPGQSPKLLIYKVSNRFSGVPDRFSGSGSGTDFTLKISRVEAEDLGIYYCFQGSHVPLTFGAGTKLELKR
notes: Mouse hybridoma monoclonal antibody raised by gene gun inoculation with CCX-CKR2 cDNA
Take B1: the binding result with CXCR2 is “no binding”; in assay [1] it was “binds”.

B2: monoclonal antibody 6E10 (antibody, V domains shown)
VH: EVKLDETGGGLVQPGRPMKLSCVASGFTFSDYWMNWVRQSPEKGLEWVGQIRNKPYNYETYYSDSVKGRFTISRDDSKSSVYLQMNNLRTEDTGIYYCTSLRYWGQGTLVTVSA
VL: DIVMTQSPSSLTVTAGEKVTMSCKSSHSLLNSGIQKNFLTWYQQKPGQPPKVLIYWAFTRESGVPERFTGSGSGTDFTLTISSVQAEDLAVYYCQSDYTYPFTFGSGTKLEIKR
notes: as for B1
On to B2, for which the binding result in the assay with CXCR2 was “no binding”; in assay [1], “binds”.
